Measured values published in patent publication US6410775.
Where “and” joins values, the source holds several entries; their conditions need not be identical. Identical values can stand only once. Bridge positions count the residues as written; N and C are the ends. Square brackets hold non-standard residues; d marks the D form. Ends that are not written are not given here. αMeP = C[C@@]1(C(=O)O)CCCN1

Tests used:
ACA-6501 aPL antibody [1] = assay: competitive ELISA on plate-bound tetravalent 3B10
[2] = target: nine affinity purified ACA antibodies; assay: competitive ELISA on CL/β2-GPI plates, peptide monomer 1 mg/mL; average of nine ACA
ACA-7004 aPL antibody [3] = assay: competitive ELISA on CL/β2-GPI plates, peptide monomer 1 mg/mL, affinity-purified ACA
ACA-6903 aPL antibody [4] = assay: as above
ACA-6641 aPL antibody [5] = assay: as above
ACA-6626 aPL antibody [6] = assay: as above
ACA-6644 aPL antibody [7] = assay: as above
ACA-6701 aPL antibody [8] = assay: as above
ACA-7005 aPL antibody [9] = assay: as above
ACA-6501 aPL antibody [10] = assay: as above
ACA-6638 aPL antibody [11] = assay: as above
ACA-6701 aPL antibody [12] = assay: competitive fluorescence polarization (cFP), displacement of CB2*-F
ACA-6701 aPL antibody [13] = assay: fluorescence polarization
ACA-7004 aPL antibody [14] = assay: competitive ELISA on CL/β2-GPI plates, peptide monomer 200 µg/mL, affinity-purified ACA
ACA-6903 aPL antibody [15] = assay: as above
ACA-6641 aPL antibody [16] = assay: as above
ACA-6626 aPL antibody [17] = assay: as above
ACA-6644 aPL antibody [18] = assay: as above
ACA-6701 aPL antibody [19] = assay: as above
ACA-7005 aPL antibody [20] = assay: as above
ACA-6501 aPL antibody [21] = assay: as above
ACA-6638 aPL antibody [22] = assay: as above
[23] = target: nine affinity purified ACA antibodies; assay: competitive ELISA on CL/β2-GPI plates, peptide monomer 200 µg/mL; average of nine ACA
ACA-7004 aPL antibody [24] = assay: competitive ELISA, peptide at 1.8 mg/mL; members from Table 7
ACA-6903 aPL antibody [25] = assay: as above
ACA-6641 aPL antibody [26] = assay: as above
ACA-6626 aPL antibody [27] = assay: as above
ACA-6644 aPL antibody [28] = assay: as above
ACA-6701 aPL antibody [29] = assay: as above
ACA-7005 aPL antibody [30] = assay: as above
ACA-6635 aPL antibody [31] = assay: as above
ACA-6501 aPL antibody [32] = assay: as above
ACA-6638 aPL antibody [33] = assay: as above
ACA-6644 aPL antibody [34] = assay: competitive ELISA, ACA serum (printed 664) on cardiolipin/β2-GPI-coated plates
[35] = target: ACA sera [1]-[10] of Table 7; assay: competitive ELISA; mean ± sd over the ten ACA sera
ACA-6501 aPL antibody [36] = assay: competitive ELISA I50; antibody not given, ACA-6501 serum on CL/β2-GPI assumed (Ex. 4B)
ACA-7004 aPL antibody [37] = assay: competitive ELISA, ACA serum on cardiolipin/β2-GPI-coated plates
ACA-6903 aPL antibody [38] = assay: as above
ACA-6641 aPL antibody [39] = assay: as above
ACA-6626 aPL antibody [40] = assay: as above
ACA-6701 aPL antibody [41] = assay: as above
ACA-7005 aPL antibody [42] = assay: as above
ACA-6635 aPL antibody [43] = assay: as above
ACA-6501 aPL antibody [44] = assay: as above
ACA-6638 aPL antibody [45] = assay: as above
ACA-6501 aPL antibody [46] = assay: aPL antibody binding of modified 3B10 peptides
ACA-6501 aPL antibody [47] = assay: competitive ELISA on plate-bound tetravalent 3B10, ACA-6501 serum

B1: peptide 139 (3B10 lacking the framework Ala-Gly at the amino terminus) (peptide)
peptide: PCLLLAPDRCPG
fold increase of the 50% inhibition concentration against peptide 142 (ACA-6501 aPL antibody [1]): 8 fold

B2: peptide ACA-6701/3B1 … (peptide)
peptide: AGPLSDPGYVRNIFHPG
percent inhibition (Ave.) [2]: 52% | percent inhibition (ACA-7004 aPL antibody [3]): 72% | percent inhibition (ACA-6903 aPL antibody [4]): 51% | percent inhibition (ACA-6641 aPL antibody [5]): 43% | percent inhibition (ACA-6626 aPL antibody [6]): 43% | percent inhibition (ACA-6644 aPL antibody [7]): 37% | percent inhibition (ACA-6701 aPL antibody [8]): 96% | percent inhibition (ACA-7005 aPL antibody [9]): 23% | percent inhibition (ACA-6501 aPL antibody [10]): 41% | percent inhibition (ACA-6638 aPL antibody [11]): 65%

B3: peptide ACA-6501/3B10 … (monomer) (peptide)
peptide: AGPCLLLAPDRCPG
percent inhibition (Ave.) [2]: 65% | Ki (ACA-6701 aPL antibody [12]): 313 nM | percent inhibition (ACA-7004 aPL antibody [3]): 87% | percent inhibition (ACA-6903 aPL antibody [4]): 69% | percent inhibition (ACA-6641 aPL antibody [5]): 52% | percent inhibition (ACA-6626 aPL antibody [6]): 76% | percent inhibition (ACA-6644 aPL antibody [7]): 55% | percent inhibition (ACA-6701 aPL antibody [8]): 51% | percent inhibition (ACA-7005 aPL antibody [9]): 47% | percent inhibition (ACA-6501 aPL antibody [10]): 60% | percent inhibition (ACA-6638 aPL antibody [11]): 87% | fold weaker binding against CB2* (ACA-6701 aPL antibody [13]): 9 fold

B4: CB2* … (peptide)
peptide: GPCILLARDRCG
modifications: disulfide 3-11 (inferred)
Ki (ACA-6701 aPL antibody [12]): 35 nM | fold improvement in binding against CB2*-F (ACA-6701 aPL antibody [13]): 14 fold

B5: peptide ACA-6644/CBf … (peptide)
peptide: GILALDYVGG
percent inhibition (ACA-7004 aPL antibody [14]): 54% | percent inhibition (ACA-6903 aPL antibody [15]): 43% | percent inhibition (ACA-6641 aPL antibody [16]): 28% | percent inhibition (ACA-6626 aPL antibody [17]): 37% | percent inhibition (ACA-6644 aPL antibody [18]): 18% | percent inhibition (ACA-6701 aPL antibody [19]): 22% | percent inhibition (ACA-7005 aPL antibody [20]): 57% | percent inhibition (ACA-6501 aPL antibody [21]): 37% | percent inhibition (ACA-6638 aPL antibody [22]): 60% | percent inhibition (Ave.) [23]: 39%

B6: peptide ACA-6641/3G3 … (LJP 688) (peptide)
peptide: AGPCLGVLGKLCPG
percent inhibition (ACA-7004 aPL antibody [24]): > 80% | percent inhibition (ACA-6903 aPL antibody [25]): > 80% | percent inhibition (ACA-6641 aPL antibody [26]): > 80% | percent inhibition (ACA-6626 aPL antibody [27]): > 80% | percent inhibition (ACA-6644 aPL antibody [28]): > 80% | percent inhibition (ACA-6701 aPL antibody [29]): > 80% | percent inhibition (ACA-7005 aPL antibody [30]): > 80% | percent inhibition (ACA-6635 aPL antibody [31]): > 80% | percent inhibition (ACA-6501 aPL antibody [32]): 80% | percent inhibition (ACA-6638 aPL antibody [33]): > 80% | percent inhibition (Ave.) [2]: 97% | IC50 (ACA-6644 aPL antibody [34]): 760 µg/mL | IC50 [35]: 860 µg/mL | IC50 (ACA-6501 aPL antibody [36]): 850 µg/mL | percent inhibition (ACA-7004 aPL antibody [3]): 100% | percent inhibition (ACA-6903 aPL antibody [4]): 100% | percent inhibition (ACA-6641 aPL antibody [5]): 93% | percent inhibition (ACA-6626 aPL antibody [6]): 100% | percent inhibition (ACA-6644 aPL antibody [7]): 100% | percent inhibition (ACA-6701 aPL antibody [8]): 100% | percent inhibition (ACA-7005 aPL antibody [9]): 95% | percent inhibition (ACA-6501 aPL antibody [10]): 86% | percent inhibition (ACA-6638 aPL antibody [11]): 100% | IC50 (ACA-7004 aPL antibody [37]): 670 µg/mL | IC50 (ACA-6903 aPL antibody [38]): 800 µg/mL | IC50 (ACA-6641 aPL antibody [39]): 890 µg/mL and 510 µg/mL | IC50 (ACA-6626 aPL antibody [40]): 1090 µg/mL | IC50 (ACA-6701 aPL antibody [41]): 1070 µg/mL | IC50 (ACA-7005 aPL antibody [42]): 750 µg/mL | IC50 (ACA-6635 aPL antibody [43]): 1000 µg/mL | IC50 (ACA-6501 aPL antibody [44]): 890 µg/mL and 1100 µg/mL | IC50 (ACA-6638 aPL antibody [45]): 810 µg/mL

B7: peptide 727 (3B10 with αMe-Pro at the 9 position) (peptide)
peptide: AGPCLLLA[αMeP]DRCPG
modifications: cysteine pairing not given here
fold enhancement in immunoreactivity against 3B10 (ACA-6501 aPL antibody [46]): 6 fold | fold increase in activity against native 3B10 (ACA-6501 aPL antibody [47]): 4 fold
